Test results published in PMC8537277 (Pharmaceuticals, 2021).

Columns and labels:
[1] = target: H1N1 hemagglutinin (Cat No.: Z03181, GenScript), full-length recombinant HA (His-Tag) (influenza A virus H1N1 (strain not stated)); assay: MST; fluorescently labelled His-HA (NT647-HA) held constant, peptide in 16 1:1 serial dilutions from 50 µM; assay buffer PBS; 10 min incubation at rt; standard-treated capillaries; high MST power, 10% LED power; Monolith NT.115pico; triplicate
[2] = target: H1N1 hemagglutinin (Cat No.: Z03181, GenScript), full-length recombinant HA (His-Tag) (influenza A virus H1N1 (strain not stated)); assay: SPR
[3] = target: H1N1 hemagglutinin (Cat No.: Z03181, GenScript), full-length recombinant HA (His-Tag) (influenza A virus H1N1 (strain not stated)); assay: SPR; remark: listed apart in the source

Binder	Kd [1]	Kd [2]	Kd [3]
Ac-SLAC-NH2 [peptide 9 (Ac-SLAC-NH2)]	5.8 nM	2570 nM	
Ac-ALDC-NH2 [peptide 7 (Ac-ALDC-NH2)]	21200 nM	27.7 nM	
Ac-SLDA-NH2 [peptide 10 (Ac-SLDA-NH2)]	2690 nM	343 nM	
Ac-SAHS-NH2 [peptide 4 (Ac-SAHS-NH2)]	8.2 nM	3.5 nM	3.57 nM
Ac-AKHS-NH2 [peptide 3 (Ac-AKHS-NH2)]	3120 nM	2700 nM	
Ac-SKHA-NH2 [peptide 6 (Ac-SKHA-NH2)]	11400 nM	6750 nM	
Ac-SKAS-NH2 [peptide 5 (Ac-SKAS-NH2)]	7010 nM	1030 nM	
Ac-SADC-NH2 [peptide 8 (Ac-SADC-NH2)]	6380 nM	2190 nM	
